{"source": "paper PMC5768801", "about": "“The PII signaling protein from red algae represents an evolutionary link between cyanobacterial and Chloroplastida PII proteins” (Scientific Reports, 2018)", "key": {"[1]": {"target": "T1, ScNAGK (Synechocystis sp., UniProt P73326)", "T1 sequence (P73326 1-297)": "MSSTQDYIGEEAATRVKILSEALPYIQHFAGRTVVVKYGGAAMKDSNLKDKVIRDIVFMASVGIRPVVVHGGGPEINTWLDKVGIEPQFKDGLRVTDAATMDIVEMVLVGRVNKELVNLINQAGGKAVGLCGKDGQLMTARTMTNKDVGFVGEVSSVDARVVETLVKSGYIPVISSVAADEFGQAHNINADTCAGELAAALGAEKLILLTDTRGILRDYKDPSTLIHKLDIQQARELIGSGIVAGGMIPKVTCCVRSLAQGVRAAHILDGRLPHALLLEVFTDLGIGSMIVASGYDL", "assay": "Coupled NAGK activity assay, ScNAGK", "type": "biochemical, Synechocystis sp. PCC 6803", "quoted_text": "The assess the activity of ScNAGK was measured with an enzyme assay, in which the ADP production was coupled to the NADH oxidation by the auxiliary enzymes pyruvate kinase and lactate dehydrogenase according to previously described procedure[32],[50]. […] The oxidation reaction of NADH was recorded for 10 min using spectrophotometer (SPECORD 210 PLUS, Analytik Jena AG) at 340 nm. […] The NADH molar absorption coefficient is 6178 L mol^−1 cm^−1 for at 340 nm, which was used for calculation. […] From the velocity slopes, the enzymatic constants Km, Kcat and IC50 were calculated using the Graph-Pad Prism software (GraphPad Software, USA)."}, "[2]": {"test_system": "ScPipX", "assay": "SPR analysis of PipX binding to PII proteins", "design": "species or system Synechocystis sp. PCC 6803", "conditions": "His-tagged ScPipX immobilized, 200 nM PII protein, ADP", "experimental": "Additionally, we assessed whether PpPII could bind to PipX by surface plasmon resonance (SPR) spectroscopy (Supplementary Fig. S3C). The N-terminally His-tagged ScPipX was immobilized on a Ni-HTG sensor chip and probed with ScPII together with effector molecule ADP. Interaction between PpPII and PipX was not observed.\nSPR experiments were conducted using a ProteOn XPR36 system (Bio-Rad) in HBS buffer (10 mM HEPES, 150 mM NaCl, 1 mM MgCl2, and 0.005% Tween 20, pH 7.5) at 25 °C. Immobilization of ligand, 1 µM His6-PipX (200 µl), was performed on a Ni^+-loaded HTG sensor chip (Bio-Rad Laboratories) in the vertical orientation into the channel L2, and the continuous running buffer was used at a flow rate of 30 µl/min. The immobilization level was approximately 3000 resonance units (RU). […] The binding of PII proteins to PipX was recorded as a response signal difference of L2 and L1. All binding sensorgrams were collected, processed and analyzed using the integrated ProteOn Manager software (Bio-Rad Laboratories).\n(§1) Figure S3. […] Complex formation between PipX and ScPII (A) or PpPII (B) was assessed by pull-down. […] (C) Complex formation between PipX and PII proteins was assessed by SPR. […]"}, "[3]": {"test_system": "PipX", "assay": "Pull-down analysis of PipX binding to PII proteins", "design": "species or system Synechocystis sp. PCC 6803", "conditions": "10 µM proteins, 1 mM ADP, Strep-Tactin column, Tricine-SDS-PAGE", "description": "In cyanobacteria, PipX is the second known receptor of PII signaling. We questioned whether red algal PII proteins have lost or retained the ability to bind to PipX. To test this possibility, we first analyzed complex formation using pull-down experiments (Supplementary Fig. S3A and B). The PII protein from Synechocystis sp. PCC 6803 (ScPII) was mixed with PipX in the presence of ADP and then the Strep-tagged PII was immobilized on the Strep-Tactin II column (Supplementary Fig. S3A). After extensive washes, the proteins were eluted with desthiobiotin and analyzed by Tricine-SDS-PAGE. Both proteins were detected in the elution. Thus, confirming previous studies[16]–[18], cyanobacterial PII was bound to PipX. When PpPII in the presence of PipX was immobilized on the column, no PipX signal was detected in the elution (Supplementary Fig. S3B).\nFor complex formation, the binding reactions were done in 300 μl of buffer (100 mM Tris HCl, pH 8.0, 150 mM NaCl, 1 mM EDTA) by adding 10 µM of purified proteins: His6-ScPipX and Strep-tag ScPII or Strep-tag PpPII. […] The eluted fractions were analyzed by Tricine-SDS PAGE[51] and stained with SimplyBlue™ SafeStain (Invitrogen).\nas §1"}}, "data": [{"molecule": "PpPII: PII from the red alga Porphyra purpurea, recombinant Strep-tagged or His-tagged protein (protein, left off: Strep-tag II, C-terminal, kept, PII from the red alga Porphyra purpurea, recombinant Strep-tagged or His-tagged protein) MKKIEAIIRPFKLNEVKLALVKGGIGGMTVVKVSGFGRQKGQTERYKGSEYSIDIIDKIKIEIIVSDDKVNSITEIIIKTAKTGEIGDGKIFISDVEQVIRIRTNDLNSAAL", "values": [{"measurement": "raise of the IC50 for arginine on addition of PpPII to ScNAGK", "setting": "[1]; 50 mM NAG, 10 mM ATP, without glutamine", "result": "approximately 4 fold"}, {"measurement": "increase of the overall NAGK catalytic efficiency by complex formation with PpPII", "setting": "[1]; PpPII-complexed versus free ScNAGK", "result": "about 4 fold"}, {"measurement": "interaction with PipX (SPR)", "setting": "[2]", "result": "not observed"}, {"measurement": "complex formation with PipX (pull-down)", "setting": "[3]", "result": "did not interact with PipX"}]}]}
